Results taken from patent US11407825B2, “NaPi2b-targeted polymer antibody-drug conjugates and methods of use thereof” (Mersana Therapeutics, Inc., priority 2018, dated 2022).

System: NaPi2b expressing tumors
Assay: Phase 1b study of XMT-1536: duration on study and reason for discontinuation
Type: in vivo, human
Text: The study presented herein is an open label, multi-center Phase 1b study of XMT-1536 administered as an intravenous infusion once every three or four weeks. The dose escalation (DES) part of the study will establish the maximum tolerated dose (MTD) or recommended Phase 2 dose (RP2D) for XMT-1536 in patients with a number of tumor types likely to express NaPi2b, with a focus on patients with platinum-resistant ovarian cancer and non-squamous non-small cell lung cancer (NSCLC). […] The RP2D may differ from the MTD and may take into account tolerability, pharmacokinetic and pharmacodynamic measures, and efficacy of XMT-1536 based on RECIST 1.1. After the first cycle, patients may continue to receive XMT-1536 until disease progression provided the drug is well-tolerated and patients continue to derive clinical benefit in the opinion of the Investigator. The DES segment of the study utilized an accelerated titration design. The first 3-week cycle of treatment constitutes the dose limiting toxicity (DLT) evaluation period. For the first two dose levels, a minimum of 1 patient was treated at each dose level. If this patient experiences a treatment-emergent adverse event of Grade 2 or higher, 2 additional patients will be added at this dose level, and the study will subsequently follow a 3+3 design, as described below. […] Starting with Dose Level 3, the study will follow a standard 3+3 design, with 3 patients enrolled initially at each dose level. […] However, in the event of 1 DLT, 3 additional patients will be enrolled at the same dose level. Any dose level with 2 or more DLTs will be considered to exceed the MTD and subsequent patients will be enrolled at lower dose level(s). After the first cycle, patients may continue to receive XMT-1536 until disease progression if the drug is well-tolerated and patients continue to derive clinical benefit in the opinion of the Investigator.
After an August 2018 protocol amendment, each cycle will be 4-week (28 day) dose cycle. The first two, 4-week cycles of treatment (56 days) constitutes the dose limiting toxicity (DLT) evaluation period. Beginning with this amendment, up to 10 patients will be enrolled for evaluation at 20.0 mg/m^2 under the new 4-week cycle dose regimen. If that dose is cleared by the SRC, subsequent dose groups will follow a modified 3+3 design. Three patients will be enrolled initially and if toxicity issues arise, the SRC will review all pertinent data and may decide to add more patients to fully evaluate a dose in question and/or lower the dose. […] The observation period for DLTs is 56 days, between Day 1 through the end of Cycle 2 which includes the pre-dose assessments before receiving the Cycle 3 dose. A maximum of ten patients will be enrolled per dose level prior to the SRM. that will be conducted no later than 5 days after at least the sixth patient dosed in each level has completed Cycle 2, Day 28 evaluations. The data available for the patients dosed in all prior will be factored into the data review for each applicable dose escalation SRM. Any dose level with 2 or more DLTs occurring in 6 or fewer treated patients will be considered to exceed the MTD and subsequent patients will be enrolled at lower dose level(s). After the second cycle, patients may continue to receive XMT-1536 until disease progression if the drug is well-tolerated and patients continue to derive clinical benefit in the opinion of the Investigator. After completion of DES, the EXP segment of the study will be opened.
Treatment will continue indefinitely unless one of the following occurs: disease progression, inter-current illness that prevents further administration of treatment, unacceptable adverse events or pregnancy, patient non-compliance with the protocol, patient withdraws consent for participation from the study, and/or general or specific changes in the patient's condition render the patient unacceptable for further treatment in the judgment of the Investigator.

[1] = doses of 20 mg/m^2 and higher (n=18)

B1: XMT-1536: about 10-15 molecules of auristatin F-hydroxypropyl amide conjugated to a cysteine moiety of NaPi2b monoclonal antibody XMT-1535 via a PHF scaffold (conjugate, chains of the INN, looked up)
VH: QVQLVQSGAEVVKPGASVKMSCKASGYTFTGYNIHWVKQAPGQGLEWIGAIYPGNGDTSYKQKFRGRATLTADTSTSTVYMELSSLRSEDSAVYYCARGETARATFAYWGQGTLVTVSS
VL: DIQMTQSPSSLSASVGDRVTITCSASQDIGNFLNWYQQKPGKTVKVLIYYTSSLYSGVPSRFSGSGSGTDYTLTISSLQPEDFATYYCQQYSKLPLTFGQGTKLELK
modifications: auristatin F-hydroxypropyl amide via PHF scaffold
notes: about 10-15 molecules of auristatin F-hydroxypropyl amide conjugated to a cysteine moiety of NaPi2b monoclonal antibody XMT-1535 via a PHF scaffold
Treatment duration >16 weeks (All NSCLC, N 3): 33%
Treatment duration >16 weeks, patients (All NSCLC, N 3): 1
Treatment duration >16 weeks (All Ovarian Cancer (OC), N 19): 42%
Treatment duration >16 weeks, patients (All Ovarian Cancer (OC), N 19): 8
discontinued for Progressive Disease per RECIST, patients (DL1 3 mg/m^2, n = 1): 1
discontinued for Progressive Disease per RECIST, patients (DL2 6 mg/m^2, n = 1): 1
discontinued for Clinical Progression, patients (DL3 12 mg/m^2, n = 7): 4
discontinued for Progressive Disease per RECIST, patients (DL3 12 mg/m^2, n = 7): 3
discontinued for Clinical Progression, patients (DL4 & 4A 20 mg/m^2, n = 13): 2
discontinued for Progressive Disease per RECIST, patients (DL4 & 4A 20 mg/m^2, n = 13): 7
discontinued for Clinical Progression, patients (DL5 & 5A 30 mg/m^2, n = 11): 3
discontinued for Progressive Disease per RECIST, patients (DL5 & 5A 30 mg/m^2, n = 11): 6
Treatment duration >16 weeks (NSCLC ≥ 20 mg/m^2, N 2): 50%
Treatment duration >16 weeks, patients (NSCLC ≥ 20 mg/m^2, N 2): 1
Treatment duration >16 weeks (OC + NSCLC ≥ 20 mg/m^2, N 18): 56%
Treatment duration >16 weeks, patients (OC + NSCLC ≥ 20 mg/m^2, N 18): 10
Treatment duration >16 weeks (OC ≥ 20 mg/m^2, N 16): 57%
Treatment duration >16 weeks, patients (OC ≥ 20 mg/m^2, N 16): 9
Treatment duration >16 weeks (OC ≥ 30 mg/m^2, N 7): 43%
Treatment duration >16 weeks, patients (OC ≥ 30 mg/m^2, N 7): 3
discontinued for Clinical Progression (Total, n = 34): (26%)
discontinued for Clinical Progression, patients (Total, n = 34): 9
discontinued for Progressive Disease per RECIST (Total, n = 34): (53%)
discontinued for Progressive Disease per RECIST, patients (Total, n = 34): 18
treatment duration of >16 weeks [1]: 50%
treatment duration of >16 weeks, patients [1]: 9
